Target: the molecule itself
Test: SEC-MALS

B1: SAM1 domain of SASH1 (WT human SAM1::6xHis, residues 627-703) (domain or fragment, UniProt O94885 627-703, looked up)
chain: RRKGRPPQPKSVEDLLDRINLKEHMPTFLFNGYEDLDTFKLLEEEDLDELNIRDPEHRAVLLTAVELLQEYDSNSDQ
- stoichiometry N: 4
